The results in this text go back to publication PMC12631112.

The target of test [1] is serum IgM of WM patient 11 (human (endogenous in serum)). Kind of test: SEC + ELISA; serum diluted in PBS fractionated by HP-SEC on Superose 6 increase 10/300 GL in PBS, 0.5 mL/min; IgM, IgM-J-chain and IgM-CD5L measured by ELISA in each 250 µL fraction. In general terms: In an ELISA, binding on a coated surface is turned into a signal by an enzyme label.
Test [2] deals with IgM of patients with IgM MGUS and WM (n = 29), IgM-CD5L ELISA. Description: ELISA; IgM-CD5L ELISA: anti-human IgM (MH-15-1) coated captures IgM from serum diluted in HPE buffer, room temperature; IgM-bound CD5L detected with a-CD5L-HRP (clone 5B5, 0.5 µg/mL); compared to total IgM.
Test [3] deals with serum IgM of healthy donors (mu heavy and light chains) (human (endogenous in serum)). The test is described as above.

B1: CD5-Like (CD5L) (natural protein)
chain: SPSGVRLVGGLHRCEGRVEVEQKGQWGTVCDDGWDIKDVAVLCRELGCGAASGTPSGILYEPPAEKEQKVLIQSVSCTGTEDTLAQCEQEEVYDCSHDEDAGASCENPESSFSPVPEGVRLADGPGHCKGRVEVKHQNQWYTVCQTGWSLRAAKVVCRQLGCGRAVLTQKRCNKHAYGRKPIWLSQMSCSGREATLQDCPSGPWGKNTCNHDEDTWVECEDPFDLRLVGGDNLCSGRLEVLHKGVWGSVCDDNWGEKEDQVVCKQLGCGKSLSPSFRDRKCYGPGVGRIWLDNVRCSGEEQSLEQCQHRFWGFHDCTHQEDVAVICSG
As for B1, in test [1], the percent of IgM molecules that contain CD5L is 10%. Besides, the ratio between IgM-CD5L complexes and total IgM was 0.1 in test [2] and 1 in test [3].
